Data: US20150322162A1

Key:
[1] = biological target: c-Met-Fc (#358-MT/CF, R&D Systems) (UniProt P08581); assay: SPR, Biacore T100; antibody captured by human Fab binder on CM5 chip, c-Met-Fc injected
[2] = biological target: HER2-Fc (#1129-ER, R&D Systems) (UniProt P04626); assay: SPR, Biacore T100; antibody captured by human Fab binder on CM5 chip, HER2-Fc injected

UniProt P08581, sequence (P08581 25-932 limits assumed): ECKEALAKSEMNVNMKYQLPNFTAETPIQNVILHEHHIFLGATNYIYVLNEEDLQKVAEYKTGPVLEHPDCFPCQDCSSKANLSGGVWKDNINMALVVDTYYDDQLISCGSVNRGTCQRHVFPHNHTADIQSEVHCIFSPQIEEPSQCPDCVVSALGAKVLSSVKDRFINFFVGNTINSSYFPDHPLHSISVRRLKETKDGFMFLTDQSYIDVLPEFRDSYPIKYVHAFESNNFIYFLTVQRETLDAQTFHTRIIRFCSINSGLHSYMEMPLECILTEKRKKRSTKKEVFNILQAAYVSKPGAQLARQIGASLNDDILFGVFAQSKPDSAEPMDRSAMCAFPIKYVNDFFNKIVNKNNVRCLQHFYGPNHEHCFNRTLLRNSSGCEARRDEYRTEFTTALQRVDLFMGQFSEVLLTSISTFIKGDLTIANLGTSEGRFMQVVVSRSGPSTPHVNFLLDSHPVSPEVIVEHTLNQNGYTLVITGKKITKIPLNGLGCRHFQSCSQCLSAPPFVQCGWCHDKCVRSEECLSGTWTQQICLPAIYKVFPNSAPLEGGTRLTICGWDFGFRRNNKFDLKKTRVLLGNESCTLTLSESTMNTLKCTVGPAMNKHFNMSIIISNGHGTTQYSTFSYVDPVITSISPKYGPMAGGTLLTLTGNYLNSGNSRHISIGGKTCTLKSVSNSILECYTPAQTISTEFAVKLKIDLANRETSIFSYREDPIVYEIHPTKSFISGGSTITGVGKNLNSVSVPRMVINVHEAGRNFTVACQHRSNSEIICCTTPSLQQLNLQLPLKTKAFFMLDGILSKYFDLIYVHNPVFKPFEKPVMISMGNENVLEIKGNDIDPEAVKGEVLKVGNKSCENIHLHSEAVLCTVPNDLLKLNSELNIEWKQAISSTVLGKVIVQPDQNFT

Row | Kd [1] | koff [1] | kon [1] | Kd [2] | koff [2] | kon [2] | Binder
1 | 0.04 nM | 1.9e-05 s⁻¹ | 500000 M⁻¹ s⁻¹ | < 0.01 nM | < 5.8e-05 s⁻¹ | 200000 M⁻¹ s⁻¹ | MH2-12 anti-c-Met/anti-HER2 bispecific antibody (bispecific antibody, part only; not given: nothing needed for binding, IgG2, not shown: another chain or arm of the molecule; small tags and cut ends) heavy: EVQLVESGGGLVQPGGSLRLSCAASGFTFTDYYMSWVRQAPGKGLEWLGFIRNKANGYTTEYSASVKGRFTISRDNSKNTLYLQMNSLRAEDTAVYYCARDNWFAYWGQGTLVTVSSASTKGPSVFPLAPCSRSTSESTAALGCLVKDYFPEPVTVSWNSGALTSGVHTFPAVLQSSGLYSLSSVVTVPSSNFGTQTYTCNVDHKPSNTKVDKTVERKCCVECPPCPAPPVAGPSVFLFPPKPKDTLMISRTPEVTCVVVDVSHEDPEVQFNWYVDGVEVHNAKTKPREEQFNSTFRVVSVLTVVHQDWLNGKEYKCKVSNKGLPAPIEKTISKTKGQPREPQVYTLPPSREEMTKNQVSLTCLVKGFYPSDIAVEWESNGQPENNYKTTPPMLDSDGSFFLYSKLTVDKSRWQQGNVFSCSVMHEALHNHYTQKSLSLSPGKGGGGSGGGGSEVQLVQSGAEVKKPGESLKISCKGSGYSFTSYWIGWVRQMPGKGLEWMGIIYPGDSDTRYSPSFQGQVTISADKSISTAYLQWSSLKASDTAMYYCARHYYDSSGYSYFPDYWGQGTLVTVSS VL: QTVVTQEPSFSVSPGGTVTLTCGLSSGSVSTSYYPSWYQQTPGQAPRTLIYSTNTRSSGVPDRFSGSILGNKAALTITGAQADDESDYYCVLYMGSGIWVFGGGTKLTVL light: DIQMTQSPSSLSASVGDRVTITCKSSQSLLASGNQNNYLAWYQQKPGKAPKMLIIWASTRVSGVPSRFSGSGSGTDFTLTISSLQPEDFATYYCQQSYSRPYTFGQGTKVEIKRTVAAPSVFIFPPSDEQLKSGTASVVCLLNNFYPREAKVQWKVDNALQSGNSQESVTEQDSKDSTYSLSSTLTLSKADYEKHKVYACEVTHQGLSSPVTKSFNRGEC
2 | 0.03 nM | 1.5e-05 s⁻¹ | 590000 M⁻¹ s⁻¹ | < 0.01 nM | < 1.3e-05 s⁻¹ | 820000 M⁻¹ s⁻¹ | MH2-18 anti-c-Met/anti-HER2 bispecific antibody (bispecific antibody, part only; not given: nothing needed for binding, IgG2, not shown: another chain or arm of the molecule; small tags and cut ends) heavy: EVQLVESGGGLVQPGGSLRLSCAASGFTFTDYYMSWVRQAPGKGLEWLGFIRNKANGYTTEYSASVKGRFTISRDNSKNTLYLQMNSLRAEDTAVYYCARDNWFAYWGQGTLVTVSSASTKGPSVFPLAPCSRSTSESTAALGCLVKDYFPEPVTVSWNSGALTSGVHTFPAVLQSSGLYSLSSVVTVPSSNFGTQTYTCNVDHKPSNTKVDKTVERKCCVECPPCPAPPVAGPSVFLFPPKPKDTLMISRTPEVTCVVVDVSHEDPEVQFNWYVDGVEVHNAKTKPREEQFNSTFRVVSVLTVVHQDWLNGKEYKCKVSNKGLPAPIEKTISKTKGQPREPQVYTLPPSREEMTKNQVSLTCLVKGFYPSDIAVEWESNGQPENNYKTTPPMLDSDGSFFLYSKLTVDKSRWQQGNVFSCSVMHEALHNHYTQKSLSLSPGKGGGGSGGGGSEVQLVQSGAEVKKPGESLKISCKGSGYSFTSYWIGWVRQMPGKGLEWMGIIYPGDSDTRYSPSFQGQVTISADKSISTAYLQWSSLKASDTAMYYCARLVVGANPPTYYFDYWGQGTLVTVSS VL: QAVVTQEPSFSVSPGGTVTLTCGLSSGSVSTSYYPSWYQQTPGQAPRTLIYSTNTRSSGVPDRFSGSILGNKAALTITGAQTDDESDYYCVLYMGSGISLFGGGTKVTVL light: DIQMTQSPSSLSASVGDRVTITCKSSQSLLASGNQNNYLAWYQQKPGKAPKMLIIWASTRVSGVPSRFSGSGSGTDFTLTISSLQPEDFATYYCQQSYSRPYTFGQGTKVEIKRTVAAPSVFIFPPSDEQLKSGTASVVCLLNNFYPREAKVQWKVDNALQSGNSQESVTEQDSKDSTYSLSSTLTLSKADYEKHKVYACEVTHQGLSSPVTKSFNRGEC
